According to patent publication US6248520, “Nucleic acid molecules encoding nuclear hormone receptor coactivators and uses thereof” (The Rockefeller University, dated 2001):

Molecular target: T1, human thyroid hormone receptor α (TRα-1), intact (human, UniProt P10827-2)
T1 sequence: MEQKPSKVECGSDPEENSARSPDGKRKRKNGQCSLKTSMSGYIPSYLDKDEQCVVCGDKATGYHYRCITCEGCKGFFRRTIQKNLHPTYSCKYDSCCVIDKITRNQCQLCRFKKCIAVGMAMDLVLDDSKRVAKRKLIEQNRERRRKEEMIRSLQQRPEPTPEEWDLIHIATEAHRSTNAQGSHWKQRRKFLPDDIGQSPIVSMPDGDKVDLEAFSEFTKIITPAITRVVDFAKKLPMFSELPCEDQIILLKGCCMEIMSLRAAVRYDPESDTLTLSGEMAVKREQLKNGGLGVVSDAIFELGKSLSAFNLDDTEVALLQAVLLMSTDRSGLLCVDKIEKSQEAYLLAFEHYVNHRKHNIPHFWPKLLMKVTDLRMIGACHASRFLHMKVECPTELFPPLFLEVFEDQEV
Experiment: Far Western: 35S-labelled TRα on blotted TR-TRAP complex (TRAP100 is one of the other TRAPs)
Procedure: For coimmunoprecipitation (7), 2 μl of anti-FLAG M2 affinity gel (Kodak) and 3 μl of ^35S-labeled input proteins were used. For Far Western analyses, 500 ng of purified TR-TRAP complex was resolved by SDS-PAGE and transferred onto a nitrocellulose membrane. The blots were probed with in vitro translated, ^35S-labeled human TRα-1 or TRα-1 C-terminus (residues 122–410) in the presence and absence of 10^-7 M T_3.
Figure 7A: FIG. 7. Ligand-dependent interaction between TRα and TRAP220. (A) Far Western. 500 ng of purified TR-TRAP complex was separated by SDS-PAGE (8% gel), blotted and probed with ^35S-labeled full length (TR) and C-terminal (TRα-C) hTRα in the presence and absence of 10^-7 M […] (T_3). The arrow head indicates the position of the TRAP220 band. (B) Co-immunoprecipitation of TR-TRAP220 from in vitro translated products. The indicated combinations of ^35S-labeled TRAP220, TRAP100 and FLAG-TRα were incubated in the presence and absence of […] (T_3), and subjected to immunoprecipitation with anti-FLAG antibodies (M2 agarose) that recognizes only FLAG-tagged TRα. Figure 7B: Figure 8A: FIG. 8. Nuclear hormone receptor interactions with […] and TRAP100. (A) Ligand-dependent interactions of GST-TRAP220/1 and 2 with ^35S-labeled TRα. […]

binding result: no binding
B1: Thyroid Receptor-associated protein (TRAP) 100 (other)
chain: MKVVNLKQAILQAWKERWSDYQWAINMKKFFPKGATWDILNLADALLEQAMIGPSPNPLILSYLKYAISSQMVSYSSVLTAISKFDDFSRDLCVQALLDIMDMFCDRLSCHGKAEECIGLCRALLSALHWLLRCTAASAERLREGLEAGTPAAGEKQLAMCLQRLEKTLSSTKNRALLHIAKLEEASSWTAIEHSLLKLGEILANLSNPQLRSQAEQCGTLIRSIPTMLSVHAEQMHKTGFPTVHAVILLEGTMNLTGETQSLVEQLTMVKRMQHIPTPLFVLEIWKACFVGLIESPEGTEELKWTAFTFLKIPQVLVKLKKYSHGDKDFTEDVNCAFEFLLKLTPLLDKADQRCNCDCTNFLLQECGKQGLLSEASVNNLMAKRKADREHAPQQKSGENANIQPNIQLILRAEPTVTNILKTMDADHSKSPEGLLGVLGHMLSGKSLDLLLAAAAATGKLKSFARKFINLNEFTTYGSEESTKPASVRALLFDISFLMLCHVAQTYGSEVILSESRTGAEVPFFETWMQTCMPEEGKILNPDHPCFRPDSTKVESLVALLNNSSEMKLVQMKWHEACLSISAAILEILNAWENGVLAFESIQKITDNIKGKVCSLAVCAVAWLVAHVRMLGLDEREKSLQMIRQLAGPLFSENTLQFYNERVVIMNSILERMCADVLQQTATQIKFPSTGVDTMPYWNLLPPKRPIKEVLTDIFAKVLEKGWVDSRSIHIFDTLLHMGGVYWFCNNLIKELLKETRKEHTLRAVELLYSIFCLDMQQVTLVLLGHILPGLLTDSSKWHSLMDPPGTALAKLAVWCALSSYSSHKGQASTRQKKRHREDIEDYISLFPLDDVQPSKLMRLLSSNEDDANILSSPTDRSMSSSLSASQLHTVNMRDPLNRVLANLFLLISSILGSRTAGPHTQFVQWFMEECVDCLEQGGRGSVLQFMPFTTVSELVKVSAMSSPKVVLAITDLSLPLGRQVAAKAIAAL
